No end group written: not given here.

The values that follow come from US20180086804A1 (COMMISSARIAT A L ENERGIE ATOMIQUE ET AUX ENERGIES …, published 2018).

In one assay the target is T1, HLA-DR7 (HLA-DRB1*07:01) (human).
T1 construct: mature; purified from homozygous EBV-transformed lymphoblastoid cells with antibody L243
Put plainly: competition ELISA vs biotin-YKL. (An ELISA detects its analyte on a solid surface through an enzyme-linked reagent.)

For another assay, the target named is T2, HLA-DR3 (HLA-DRB1*03:01) (human).
T2 construct: mature; purified from homozygous EBV-transformed lymphoblastoid cells with antibody L243
Kind of assay: competition ELISA vs biotin-MT 2-16.

Assay [1] deals with T3, HLA-DR15 (HLA-DRB1*15:01) (human).
T3 construct: mature; purified from homozygous EBV-transformed lymphoblastoid cells with antibody L243
Kind of assay: competition ELISA vs biotin-A3 152-166.

In the next assay the target is T4, HLA-DR1 (HLA-DRB1*01:01) (human).
T4 construct: mature; class II HLA molecule purified from homozygous EBV-transformed lymphoblastoid cells with antibody L243
Kind of assay: competition ELISA vs biotin-HA 306-318.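 Note: HLA and competitor incubated 24 to 72 h, maximal signal taken from wells lacking competitor, background from wells lacking HLA molecule.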

Assay [2] addresses T5, HLA-DRB5 (HLA-DRB5*01:01) (human).
T5 construct: mature; purified from homozygous EBV-transformed lymphoblastoid cells with antibody L243
Kind of assay: competition ELISA vs biotin-HA 306-318.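 Note: HLA and competitor incubated 24 to 72 h, maximal signal taken from wells lacking competitor, background from wells lacking HLA molecule.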

Another assay addresses T6, HLA-DR4 (HLA-DRB1*04:01) (human).
T6 construct: mature; purified from homozygous EBV-transformed lymphoblastoid cells with antibody L243
Put plainly: competition ELISA vs biotin-HA 306-318.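 Note: HLA and competitor incubated 24 to 72 h, maximal signal taken from wells lacking competitor, background from wells lacking HLA molecule.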

In assay [3] the target is T7, HLA-DR11 (HLA-DRB1*11:01) (human).
T7 construct: mature; purified from homozygous EBV-transformed lymphoblastoid cells with antibody L243
Kind of assay: competition ELISA vs biotin-HA 306-318.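 Note: HLA and competitor incubated 24 to 72 h, maximal signal taken from wells lacking competitor, background from wells lacking HLA molecule.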

The target in assay [4] is T8, HLA-DRB3 (HLA-DRB3*01:01) (human).
T8 construct: mature; purified from homozygous EBV-transformed lymphoblastoid cells with antibody L243
Put plainly: competition ELISA vs biotin-LOL 191-210.

Assay [5] has as its target T9, HLA-DRB4 (HLA-DRB4*01:01) (human).
T9 construct: mature; purified from homozygous EBV-transformed lymphoblastoid cells with antibody L243
Put plainly: competition ELISA vs biotin-E2/E168.

In assay [6] the target is T10, HLA-DP401 (HLA-DPB1*04:01) (human, UniProt P20036 29-222).
T10 construct: mature; purified from homozygous EBV-transformed lymphoblastoid cells with antibody B7/21
Put plainly: competition ELISA vs biotin-Oxy 271-287.

The target of assay [7] is T11, HLA-DP402 (HLA-DPB1*04:02) (human, UniProt P20036 29-222).
T11 construct: mature; purified from homozygous EBV-transformed lymphoblastoid cells with antibody B7/21
Put plainly: competition ELISA vs biotin-Oxy 271-287.

The target of assay [8] is T12, HLA-DR13 (HLA-DRB1*13:01) (human).
T12 construct: mature; purified from homozygous EBV-transformed lymphoblastoid cells with antibody L243
Put plainly: competition ELISA vs biotin-B1 21-36.

Assay [9] addresses T13, HLA-DR13 (HLA-DRB1*13:01) (human).
T13 chain 1: not shown
T13 chain 2: not shown
Kind of assay: competition ELISA vs biotin-B1 21-36.

As to HQIRQMEMKILRALN-NH2 [CCNB1 280-294], the relative affinity with HLA-DR7 (HLA-DRB1*07:01) was 462; with HLA-DR3 (HLA-DRB1*03:01), 0.2; in assay [1] it was 0.3; with HLA-DR1 (HLA-DRB1*01:01), 1220; in [2], 4; with HLA-DR4 (HLA-DRB1*04:01) it was 0.4. In addition, the relative affinity in assay [3] is 2000; in [4] it was 53.
PQLNSALVQDLAKAV-NH2 [CCNB1 416-430]: the relative affinity with HLA-DR7 (HLA-DRB1*07:01) turned out to be 47; in assay [5], 1800; in the assay with HLA-DR3 (HLA-DRB1*03:01) it was 9; in [1], 71; in the assay with HLA-DR1 (HLA-DRB1*01:01), 693; in assay [2], 548. Moreover, the relative affinity in the assay with HLA-DR4 (HLA-DRB1*04:01) came out at 54; in assay [3], 123; in assay [4], 3; in assay [6] it was 59; in assay [7] it was 74.
With ESLLPVMQHLAKNVV-NH2 [CCNB1 374-388], the relative affinity in the assay with HLA-DR7 (HLA-DRB1*07:01) amounted to 3; in [5], 424; in the assay with HLA-DR3 (HLA-DRB1*03:01), 764; in assay [8], 6; in assay [1] it was 19; with HLA-DR1 (HLA-DRB1*01:01), 837. In addition, the relative affinity in assay [2] was 91; with HLA-DR4 (HLA-DRB1*04:01) it was 91; in assay [3] it was 0.3.
With MEMKILRALNFGLGR-NH2 [CCNB1 285-299], the relative affinity came out at 0.1 in the assay with HLA-DR7 (HLA-DRB1*07:01); 18 in assay [5]; 51 in the assay with HLA-DR3 (HLA-DRB1*03:01); 1 in assay [8]; 0.03 in assay [1]; 1 in the assay with HLA-DR1 (HLA-DRB1*01:01). Also, the relative affinity in assay [2] was found to be 2; in the assay with HLA-DR4 (HLA-DRB1*04:01), 7; in [3], 4; in assay [6] it was 30; in assay [7] it was 4.
Consider EPILVDTASPSPMET-NH2 [CCNB1 118-132], for which the relative affinity with HLA-DR3 (HLA-DRB1*03:01) was determined as 0.4; in assay [1], 400; with HLA-DR1 (HLA-DRB1*01:01), 6360; in the assay with HLA-DR4 (HLA-DRB1*04:01) it was 0.3; in assay [4] it was 12.
As to AKYLMELTMLDYDMV-NH2 [CCNB1 323-337], the relative affinity in the assay with HLA-DR7 (HLA-DRB1*07:01) was 8; in assay [5] it was 7; with HLA-DR3 (HLA-DRB1*03:01), 2; in [1], 2; in the assay with HLA-DR1 (HLA-DRB1*01:01) it was 4; in assay [2] it was 2. For the same molecule, the relative affinity was 0.2 in the assay with HLA-DR4 (HLA-DRB1*04:01); 0.4 in assay [3]; 41 in assay [4]; 1 in assay [6]; 6 in assay [7].
Consider HTLAKYLMELTMLDY-NH2 [CCNB1 320-334], for which the relative affinity in the assay with HLA-DR7 (HLA-DRB1*07:01) is 18; in assay [5] it was 18; with HLA-DR3 (HLA-DRB1*03:01), 1; in [8], 10; in assay [1], 3; with HLA-DR1 (HLA-DRB1*01:01), 16. The relative affinity came out at 17 in [2]; 1 with HLA-DR4 (HLA-DRB1*04:01); 2 in assay [3]; 24 in assay [4]; 8 in [6]; 3 in assay [7].
For the molecule AKISTLPQLNSALVQ-NH2 [CCNB1 410-424], the relative affinity in assay [5] was 966; in assay [8], 94; in assay [1], 12; with HLA-DR1 (HLA-DRB1*01:01) it was 89; with HLA-DR4 (HLA-DRB1*04:01) it was 408; in assay [3] it was 1. This molecule displayed a relative affinity in assay [7] of 1120.
Take NSALVQDLAKAVAKV-NH2 [CCNB1 419-433]: the relative affinity stood at 183 with HLA-DR7 (HLA-DRB1*07:01); 1 in the assay with HLA-DR3 (HLA-DRB1*03:01); 37 in assay [8]; 7 in assay [1]; 155 with HLA-DR1 (HLA-DRB1*01:01); 333 with HLA-DR4 (HLA-DRB1*04:01). Further, the relative affinity in [3] was determined as 3; in [4] it was 7; in assay [7], 148.
The molecule TERVRLVTRHIYNREE (modifications not checked) [B1 21-36] gave an IC50 in assay [9] of 51 nM.

One may read the IC50 as the concentration needed to halve the response being measured. High values mean weaker potency in that assay, low ones greater potency in that assay.
